The experiment concerns the target human interleukin-4 receptor alpha chain (IL-4Rα) (human) (UniProt P24394). Put plainly: cell-based or functional assay.

B1: Reference IL-4Rα antibody (Dupilumab) (antibody, INN chains, looked up, V domains shown)
VH: EVQLVESGGGLEQPGGSLRLSCAGSGFTFRDYAMTWVRQAPGKGLEWVSSISGSGGNTYYADSVKGRFTISRDNSKNTLYLQMNSLRAEDTAVYYCAKDRLSITIRPRYYGLDVWGQGTTVTVSS
VL: DIVMTQSPLSLPVTPGEPASISCRSSQSLLYSIGYNYLDWYLQKSGQSPQLLIYLGSNRASGVPDRFSGSGSGTDFTLKISRVEAEDVGFYYCMQALQTPYTFGQGTKLEIKR
As for B1, the Eotaxin-3 IC50 (nM): inhibition of IL-4 induced eotaxin-3 release, human whole blood in vitro, 8 ng/mL IL-4 for 24 hours, ELISA was 1.5 nM; the MDC IC50 (nM): inhibition of IL-4 induced MDC release, human whole blood in vitro, 8 ng/mL IL-4 for 24 hours, ELISA is 1.1 nM; the TARC IC50 (nM): inhibition of IL-4 induced TARC release, human whole blood in vitro, 8 ng/mL IL-4 for 24 hours, ELISA stood at 0.8 nM; the pSTAT IC50 (nM): inhibition of IL-4 stimulated STAT6 phosphorylation in CD3+ T cells, human whole blood in vitro, 8 ng/mL IL-4 for 15 minutes, FACS was 0.8 nM.

These data come from patent US20220193191A1.
